Among the data in paper PMC8071376 are binding values, retold here.

In data set [1] the test system is His6-RelB (Streptococcus pneumoniae R6). As to the kind of experiment: DNase I footprinting. The conditions noted are these: DNase I footprinting: 40 mM Tris-HCl pH 7.9, 6 mM MgCl2, 1 mM CaCl2, 10 mM NaCl plus 100 mM NaCl, 1 mM DTT, 10% glycerol, 10 ug/mL heparin or 50 ng ….
Data set [2] deals with RelB (untagged, in RelB:RelE-His6 complex);RelE-His6 (Streptococcus pneumoniae R6;Streptococcus pneumoniae R6). As to the kind of experiment: DNase I footprinting. The conditions noted are these: DNase I footprinting: 40 mM Tris-HCl pH 7.9, 6 mM MgCl2, 1 mM CaCl2, 10 mM NaCl plus 100 mM NaCl, 1 mM DTT, 10% glycerol, 10 ug/mL heparin or 50 ng ….

As to PrelBE 199-bp promoter fragment, the binding in data set [1] worked out at 10 µM; in data set [2] it was 1 µM.
